Holding throughout (test): EMSA; EMSA: 10 mM HEPES, 150 mM NaCl, 0.01% Tween-20, 0.1 mg/ml BSA, 1 mM TCEP, 4 °C, 40 min; RNA <50 pM
On the technique in general: In EMSA bound probe runs differently from free probe, usually more slowly.

Series [1] addresses T1, Nop9 (46-645) (Saccharomyces cerevisiae, UniProt P47077 46-645).
T1 sequence: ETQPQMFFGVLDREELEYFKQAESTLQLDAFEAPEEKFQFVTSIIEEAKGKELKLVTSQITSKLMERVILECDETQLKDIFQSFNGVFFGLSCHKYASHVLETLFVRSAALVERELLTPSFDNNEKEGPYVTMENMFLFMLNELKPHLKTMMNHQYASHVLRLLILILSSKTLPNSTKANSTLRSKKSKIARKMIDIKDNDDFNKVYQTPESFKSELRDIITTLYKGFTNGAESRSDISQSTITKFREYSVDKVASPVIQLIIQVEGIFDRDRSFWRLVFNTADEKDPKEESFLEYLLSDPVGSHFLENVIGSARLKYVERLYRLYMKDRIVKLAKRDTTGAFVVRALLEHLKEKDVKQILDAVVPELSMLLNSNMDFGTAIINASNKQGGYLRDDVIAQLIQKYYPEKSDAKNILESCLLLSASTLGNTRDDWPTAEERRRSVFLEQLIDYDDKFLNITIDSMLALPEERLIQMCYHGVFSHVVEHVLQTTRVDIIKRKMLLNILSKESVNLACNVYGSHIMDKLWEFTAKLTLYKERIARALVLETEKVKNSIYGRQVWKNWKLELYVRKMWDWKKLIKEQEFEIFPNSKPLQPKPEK
The note with it: protein: recombinant, tags: none (SUMO cleaved), hairpin.

The next series addresses T2, Nop9 full-length (Saccharomyces cerevisiae, UniProt P47077 1-666).
T2 sequence: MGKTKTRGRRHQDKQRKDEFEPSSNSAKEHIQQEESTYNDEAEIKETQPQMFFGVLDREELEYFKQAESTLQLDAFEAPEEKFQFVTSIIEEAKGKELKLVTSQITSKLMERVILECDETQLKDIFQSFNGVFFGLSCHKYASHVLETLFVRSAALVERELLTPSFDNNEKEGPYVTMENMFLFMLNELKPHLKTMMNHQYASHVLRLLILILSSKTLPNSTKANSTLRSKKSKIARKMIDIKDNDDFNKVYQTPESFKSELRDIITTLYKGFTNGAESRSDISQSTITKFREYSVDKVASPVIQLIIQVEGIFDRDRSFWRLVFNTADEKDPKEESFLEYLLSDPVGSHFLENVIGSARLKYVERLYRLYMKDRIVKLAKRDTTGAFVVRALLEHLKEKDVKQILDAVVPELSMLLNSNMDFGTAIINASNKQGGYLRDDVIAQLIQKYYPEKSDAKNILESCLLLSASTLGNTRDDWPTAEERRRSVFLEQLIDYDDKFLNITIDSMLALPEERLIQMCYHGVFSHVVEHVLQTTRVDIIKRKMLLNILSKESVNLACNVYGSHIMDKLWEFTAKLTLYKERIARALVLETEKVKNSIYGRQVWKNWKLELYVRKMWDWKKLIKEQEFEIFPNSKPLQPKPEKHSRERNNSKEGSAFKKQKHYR
As to conditions: protein: recombinant; tags: none (SUMO cleaved); label: 5' 32P; hairpin, 5' flank.

Series [2] deals with T1, Nop9 (46-645). As to conditions: protein: recombinant; tags: none (SUMO cleaved); label: 5' 32P; hairpin, 5' flank.
Series [3] deals with T1, Nop9 (46-645). As to conditions: protein: recombinant; tags: none (SUMO cleaved); label: 5' 32P; hairpin, 5' flank. This is another data set of the same source.

Where a chain is given by its changes, count along the chain named. Names may count otherwise.

The Kd is the free concentration of one partner at which half of the binding sites on the other are occupied at equilibrium, for simple one-to-one binding.

B1: Subdomain A Δ3' (structured_RNA)
RNA: GGAAGAAAUUUAAUAAUUUUGAAAAUGGAUUUUUUUGUUUUAUAGGACAAUUAAAACCGUUUCAA
With B1, in the series with Nop9 (46-645) [1] (label: 5' 32P, 5' flank), the equilibrium dissociation constant (Kd) came to 15.7 ± 2.6 nM.

B2: Subdomain A Δ5'1-6, Δ3' (structured_RNA)
RNA: GGUUUAAUAAUUUUGAAAAUGGAUUUUUUUGUUUUAUAGGACAAUUAAAACCGUUUCAA
In the case of B2, the Kd with Nop9 full-length was 10.1 ± 1 nM; in the series with Nop9 (46-645) [1] (label: 5' 32P, 5' flank) it was 11.8 ± 0.4 nM.

B3: AAU(13-15)CCC, A Δ5'1-6, Δ3' (structured_RNA)
RNA: B2 RNA with A9C, A10C, U11C
As to B3, in the series with Nop9 (46-645) [1] (label: 5' 32P, 5' flank), the Kd was 27.6 ± 3.7 nM.

B4: III: UU(17-18)GC, AA(205-206)GC (structured_RNA)
RNA: B2 RNA with U13G, U14C, A58G, A59C
On to B4, for which, in the series with Nop9 (46-645) [2], the binding signal is ~4 fold Kd vs A Δ5'1-6,Δ3'.

B5: UUU(7-9)GGG, A Δ5'1-6, Δ3' (structured_RNA)
RNA: B2 RNA with U3G, U4G, U5G
Turning to B5, the Kd with Nop9 (46-645) [1] (label: 5' 32P, 5' flank) was determined as 6.6 ± 0.3 nM.

B6: I: UUU(16-18)GGC, AA(205-206)GC (structured_RNA)
RNA: B2 RNA with U12G, U13G, U14C, A58G, A59C
In the case of B6, the Kd in the series with Nop9 (46-645) [1] (label: 5' 32P, 5' flank) was found to be 103 ± 12 nM.

B7: U16A (structured_RNA)
RNA: B2 RNA with U12A
As for B7, in the series with Nop9 (46-645) [1] (label: 5' 32P, 5' flank), the Kd stood at 62.3 ± 4.9 nM.

B8: IV: stem base strands reversed (UUG17-19AAC, CAA204-206GUU) (structured_RNA)
RNA: B2 RNA with U13A, U14A, G15C, C57G, A58U, A59U
With B8, the binding result with Nop9 (46-645) [1] (label: 5' 32P, 5' flank) is “binds”.

B9: II: U16G (structured_RNA)
RNA: B2 RNA with U12G
B9: the equilibrium dissociation constant (Kd) with Nop9 (46-645) [1] (label: 5' 32P, 5' flank) is 47.7 ± 1.8 nM.

B10: nt 20-22 mutant, pairing kept (structured_RNA)
RNA: B2 RNA with A16C, A17C, A18C, U54G, U55G, U56G
Regarding B10, the binding result in the series with Nop9 (46-645) [1] (label: 5' 32P, 5' flank) is “binds”.

B11: AAU(10-12)CCC, A Δ5'1-6, Δ3' (structured_RNA)
RNA: B2 RNA with A6C, A7C, U8C
On to B11, for which the Kd with Nop9 (46-645) [1] (label: 5' 32P, 5' flank) is 8.5 ± 0.6 nM.

B12: ITS1 Subdomain C (77-140) (structured_RNA)
RNA: GGAGAGAUGGAGAGUCCAGCCGGGCCUGCGCUUAAGUGCGCGGUCUUGCUAGGCUUGUAAGUUUCU
For the molecule B12, in the series with Nop9 (46-645) [1] (label: 5' 32P), the dissociation constant Kd was 74.4 ± 4.1 nM.

B13: nt 27-30 mutant, pairing kept (structured_RNA)
RNA: GGUUUAAUAAUUUUGAAAAUGGGCGCUUUUGUUUUAUAGGACAAUUGCGCCCGUUUCAA
Regarding B13, in the series with Nop9 (46-645) [1] (label: 5' 32P, 5' flank), the binding result is recorded as “binds”.

B14: ITS1 Subdomain A (1-38_184-212) (structured_RNA)
RNA: GGAAGAAAUUUAAUAAUUUUGAAAAUGGAUUUUUUUGUUUUAUAGGACAAUUAAAACCGUUUCAAUACAAC
For the molecule B14, in the series with Nop9 (46-645) [1] (label: 5' 32P (EMSA), 5' and 3' single-stranded flanks), the Kd was 2.4 ± 0.3 nM.

B15: Subdomain A Δ5'1-15, Δ3' (structured_RNA)
RNA: GGUUUGAAAAUGGAUUUUUUUGUUUUAUAGGACAAUUAAAACCGUUUCAA
Turning to B15, the dissociation constant (Kd) in the series with Nop9 (46-645) [1] (label: 5' 32P) came out at 346 ± 40 nM.

B16: V: U-G pairs at stem base (structured_RNA)
RNA: UUUAAUAAUUUUGAAAAUGGAUUUUUUUGUUUUAUAGGACAAUUAAAACCGUUUCGG
Consider B16, for which the binding signal in the series with Nop9 (46-645) [3] was ~3 fold Kd vs A Δ5'1-6,Δ3'.

B17: Subdomain A Δ5'1-12, Δ3' (structured_RNA)
RNA: GGAAUUUUGAAAAUGGAUUUUUUUGUUUUAUAGGACAAUUAAAACCGUUUCAA
As to B17, the dissociation constant (Kd) with Nop9 (46-645) [1] (label: 5' 32P, 5' flank) is 18.2 ± 1.9 nM.

B18: ITS1 Subdomain B (39-77_140-183) (structured_RNA)
RNA: GGUGGCAAGAGCAUGAGAGCUUUUACUGGGCAAGAAGACAAUUUCUUGCUAUUCCAAACGGUGAGAGAUUUCUGUGCUUUUGUUA
Turning to B18, in the series with Nop9 (46-645) [1] (label: 5' 32P), the equilibrium dissociation constant (Kd) stood at 105 ± 2.9 nM.

For the origin of these results see article PMC5062617, “Nop9 is a PUF-like protein that prevents premature cleavage to correctly process pre-18S rRNA”.
